Laboratory results: the RNAGym collection of RNA variant scans (doi:10.1073/pnas.2313332121)

B1: TPR t1 (parent)
chain: GACCAAUCUGCCCUCAGAGCUCGAGAACAUCUUCGGAUGCAGAGGAGGCAGGCUUCGGUGGCGCGAUAGCGCCAACGUCCUCAACCUCCAAUGCAUCCCACCACAUGAUGAUGCCUGAAGAGCCUUGGUUUUUUG

Variants of: B1
Experiment: polymerase ribozyme fitness, log enrichment relative to wild type (log ratio); higher = more active; in vitro selection for triplet polymerase activity
In short: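 A single round of triplicate in vitro selection, including frozen incubation at −7 °C, was applied to PCR-built, transcribed mutant libraries of each subunit of a heterodimeric triplet polymerase ribozyme. Illumina sequencing of input and output libraries retained genotypes with ≥10 input reads and ≥1 read per output. Fitness is the base-2 logarithm of genotype enrichment divided by wild-type enrichment, from inverse-variance-weighted replicate averages.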

Row | Variant | polymerase ribozyme fitness (log ratio)
1 | GACCAAUCUGGCCUCAGAGCUCGAGAACAUCUUCGGAUGUAGAGGAGGUAGGCUGCGGUGGCGCGAUAGCGCCAACGUCCUCAACCUCCAAUGCAUCCCACCACAUGAUGAUGCCUGAAGAGCCUUGGUAUAUUG | -1.35
2 | GACCAAUCUGGCCUCAGAGCUUGAGAACAUCUUCGGAUGCAGAGGAGGCAGGCUUCGGUGCCGCGAUAGCGCCAACGUCCUCGACCUCCAAUGCAUCCCACCACAUGAUGAUGCCUGAAGAGCCUUGGUUUUUUG | -6.84
3 | GACCAAUCUGGCCUCAGAGCUCGAGAAGAUCUUCGGAUGCAGAGGAGGCAGGCUUCGGUGGCGCGAUAGCGCCAACGUCCUCAACAUCCAAUGCAUCCCACCACAUGAUGAUGCCUGAAGAGUCUUGGUUUUUUG | -1.94
4 | GACCAAUCUGGCCUCAGAGCUUGAGAACAUCUUCGAAUGCAGAGGAGGCAGGCUUCGGUGGCGCGAUAGCGCCAACGUCCUCAACCUCCAAUGCAUCCCACCACAUGAUGAUGCCUGAAGAGCCUUGGUUUUUUG | -4.08
5 | GACCAAUCUGGCCUCAGAGCUCGAGAACAUCUUCGGAUGAAGAGGAGGCAGGCUUCGGUGGCGCGAUAGCGUCAACGUCCUCAACCUCCAAUGCAUCCCAUCAUAUGAUGAUGCCUGAAGAGCCUUGGUUUUUUU | -0.627
6 | GACCAAUCUGGCCUCAGAGCUCGAGAACAUCUUUGGAUGCAGAGGAGGCAGGCUUCGGUGGCGCGAUAGCGCCAACGUCCUCAACCUCCAAUGCAUCCCACCACAUGAUGAUGCCUGAAGAGCCUUGGUUUUUUG | -2.8
7 | GACCAAUCUGGCCUCAGAGCUCGAGAACAUAUUCGGAUGCAGAGGAGGCAGGCUUCGGUGGCGCGAUAGCGCUAACGUCCUCAACCUCCAAUGCAUCCCACCACAUGAUGAUGCCUGAAGAGCCUUGGUUUUUUG | -4.73
8 | GACCAAUCUGGCCUCAGAGCUUGAGAACAUCUUCGGAUGCAGAGGAGGCAGGCUUCGGUGGCGCGAUAGCGCCAACGUCCUCAACCUCCAAUGCAUCCCACCACAUGAUGAUUCCUGAGGAGCCUUGGUUUUUUG | -5.79
9 | GACCAAUCUGGCCUCAGAGCUCGAGAACAUCUUCGGAUGAAGAGGAGGCAGGCUUCGGUGGCGCGAUAGCGCCAACGUCCUCAACCUCCAAUGCAUCCUACCACAUGAUGAUGCCUGAAGAGCCUUGGUUUUUUG | -4.65
10 | GACCAAUCUGGCCUCAGAGCUCGAGAACAUCUUCGGAUGUAGAGGAGGCAGGUUUCGGUGGCGCGAUGGCGCCAACGUCCUCAACCACCUAUGCAUCCCACCACAUGAUGAAGCCUGAAGAGCCUUCGUUUUUUG | -6.81
11 | GACCAAUCUGGCCUCAGAGCUCGAGAAGAUCUUCGGAUGCAGAGGAGGCAGGCUUGGGUGGCGCGAUAGCGCCAACGUCCUCAAGCUCCAAUGCAUCCCACCACAUGAUGAUGCCUGAAGAGCCUUGGUUUUUUG | -6.05
12 | GACCAAUCUGGCCUCAGAGCUCGAGAACAUCUUCGGAUGCAGAGGAGGAAGGCUUCGGUGGCGCGAUAGCGCCAACGUCCUCAACCUCCAAUGCAUCCCACCACAUGAUGAUGCCUGAAGAGCCUUGGUUUUUUG | 0.121
13 | GACCAAUCUGGCCUCAGAGCUCGAGAACAUCUUUGGAUGCAGAGGAGGCAGGCUUCGGUGGCGCGAUAGCGCCAACGUCCUCAACGUCCAAUGCAUCCCACCACAUGAUGAUGCCUGUAGAGCCUUGGUUUUUUG | -5.02
14 | GACCAAUCUGGCCUCAGAGCUCGAGAACAUCUUAGGAUGCAGAGGAGGCAGGCUUCGGUGGCGCGAUAGCGCCAACGUCCUCAACCUCCAAUGCAUCCCACCACAUGAUGAUGCCUGAAGAAACUUGGUUUUUUG | -1.19
15 | GACCAAUCUGGCCUCAGAGCUCGAGAACAUCUUCGGAUGUAGAGGAGGCAGGCUUCGGUGGCGCGAUAUCGCCGACGUACUCAACCUCCAAUGCAUCCCACCACAUGAUGAUGCAUGAAGAGCCUUGGUUUUUUG | -4
16 | GACCAAUCUGGCCUCAGAGCUCGAGAAAAUCUUCGGAUGCAGAGGAGGCAGGCUUCGGUGGCGCGAUAGCGCCAACGUCCUCAACCUCCAAUGCAUCCCACCACAUGAUGAAGCCUGAAGAGCCUUGGUUUUUUG | -1.33
17 | GACCAAUCUGGCCUCAGAGCUUGAGAACAUCUUCGGAUGCAGAGGAGGCUGGCUUAUGUGGCGCGAUAGCGCCAACGUCCUCAACCUCUAAUGCAUCCCACCACAUGAUGAUGCCUGAAGAGCCUUGGUUUUUUG | -6.34
18 | GACCAAUCUGGCCUCAGAGCUCGAGAACAUCUUCGGAUGAAGAGGAGGCAGGAUUCGGUGGCGCGAUAGCGCCAACGUCCUCAACCUCCAAUGCAUCCCACCACAUGAUGAUGCCUGAAGAGCCUUGGUUUUUUG | -0.596
19 | GACCAAUCUGGCCUCAGAGCUCGAGAACAUCUUCGGAUGCAGAGGAGGAAGGCUUCGGUGGAGCGAUAGCGCCAACGUCCUCAACCUCCAAUGCAUCCCACCACAUGAUGAUGCCUGAAGAGCCUUGGUUUUUUG | -0.975
20 | GACCAAUCUGGCCUCAGAGCUUGAGAACAUCUUCGGAUGCAGAGGAGGCAGGCUUCGGUGACGCGCUAGCGCCAACGUCCUCAACCUCCAAUGCAUCCCACCACAUGAUGAUGCCUGAAGAGCCUUGGUUUUUUG | -3.92
21 | GACCAAUCUGGCCUCAGAGCUCGAGAACAUCUUCGGAUGUAGAGGAGGCAGGCUUCGGUGGCGCGAUAGCGCCAACGUCCUCAACCUCCAAUGCAUCCCACCACAUGAUGAUGCCUGAAGAGCCUUGGUUUUUUG | -0.213
